The target in this experiment is vesicular stomatitis virus (VSV) large (L) protein (vesicular stomatitis virus (VSV) …, UniProt P03523 1-2109). In words: cryo-EM structure.
Sequence of vesicular stomatitis virus (VSV) large (L) protein (P03523 whole entry): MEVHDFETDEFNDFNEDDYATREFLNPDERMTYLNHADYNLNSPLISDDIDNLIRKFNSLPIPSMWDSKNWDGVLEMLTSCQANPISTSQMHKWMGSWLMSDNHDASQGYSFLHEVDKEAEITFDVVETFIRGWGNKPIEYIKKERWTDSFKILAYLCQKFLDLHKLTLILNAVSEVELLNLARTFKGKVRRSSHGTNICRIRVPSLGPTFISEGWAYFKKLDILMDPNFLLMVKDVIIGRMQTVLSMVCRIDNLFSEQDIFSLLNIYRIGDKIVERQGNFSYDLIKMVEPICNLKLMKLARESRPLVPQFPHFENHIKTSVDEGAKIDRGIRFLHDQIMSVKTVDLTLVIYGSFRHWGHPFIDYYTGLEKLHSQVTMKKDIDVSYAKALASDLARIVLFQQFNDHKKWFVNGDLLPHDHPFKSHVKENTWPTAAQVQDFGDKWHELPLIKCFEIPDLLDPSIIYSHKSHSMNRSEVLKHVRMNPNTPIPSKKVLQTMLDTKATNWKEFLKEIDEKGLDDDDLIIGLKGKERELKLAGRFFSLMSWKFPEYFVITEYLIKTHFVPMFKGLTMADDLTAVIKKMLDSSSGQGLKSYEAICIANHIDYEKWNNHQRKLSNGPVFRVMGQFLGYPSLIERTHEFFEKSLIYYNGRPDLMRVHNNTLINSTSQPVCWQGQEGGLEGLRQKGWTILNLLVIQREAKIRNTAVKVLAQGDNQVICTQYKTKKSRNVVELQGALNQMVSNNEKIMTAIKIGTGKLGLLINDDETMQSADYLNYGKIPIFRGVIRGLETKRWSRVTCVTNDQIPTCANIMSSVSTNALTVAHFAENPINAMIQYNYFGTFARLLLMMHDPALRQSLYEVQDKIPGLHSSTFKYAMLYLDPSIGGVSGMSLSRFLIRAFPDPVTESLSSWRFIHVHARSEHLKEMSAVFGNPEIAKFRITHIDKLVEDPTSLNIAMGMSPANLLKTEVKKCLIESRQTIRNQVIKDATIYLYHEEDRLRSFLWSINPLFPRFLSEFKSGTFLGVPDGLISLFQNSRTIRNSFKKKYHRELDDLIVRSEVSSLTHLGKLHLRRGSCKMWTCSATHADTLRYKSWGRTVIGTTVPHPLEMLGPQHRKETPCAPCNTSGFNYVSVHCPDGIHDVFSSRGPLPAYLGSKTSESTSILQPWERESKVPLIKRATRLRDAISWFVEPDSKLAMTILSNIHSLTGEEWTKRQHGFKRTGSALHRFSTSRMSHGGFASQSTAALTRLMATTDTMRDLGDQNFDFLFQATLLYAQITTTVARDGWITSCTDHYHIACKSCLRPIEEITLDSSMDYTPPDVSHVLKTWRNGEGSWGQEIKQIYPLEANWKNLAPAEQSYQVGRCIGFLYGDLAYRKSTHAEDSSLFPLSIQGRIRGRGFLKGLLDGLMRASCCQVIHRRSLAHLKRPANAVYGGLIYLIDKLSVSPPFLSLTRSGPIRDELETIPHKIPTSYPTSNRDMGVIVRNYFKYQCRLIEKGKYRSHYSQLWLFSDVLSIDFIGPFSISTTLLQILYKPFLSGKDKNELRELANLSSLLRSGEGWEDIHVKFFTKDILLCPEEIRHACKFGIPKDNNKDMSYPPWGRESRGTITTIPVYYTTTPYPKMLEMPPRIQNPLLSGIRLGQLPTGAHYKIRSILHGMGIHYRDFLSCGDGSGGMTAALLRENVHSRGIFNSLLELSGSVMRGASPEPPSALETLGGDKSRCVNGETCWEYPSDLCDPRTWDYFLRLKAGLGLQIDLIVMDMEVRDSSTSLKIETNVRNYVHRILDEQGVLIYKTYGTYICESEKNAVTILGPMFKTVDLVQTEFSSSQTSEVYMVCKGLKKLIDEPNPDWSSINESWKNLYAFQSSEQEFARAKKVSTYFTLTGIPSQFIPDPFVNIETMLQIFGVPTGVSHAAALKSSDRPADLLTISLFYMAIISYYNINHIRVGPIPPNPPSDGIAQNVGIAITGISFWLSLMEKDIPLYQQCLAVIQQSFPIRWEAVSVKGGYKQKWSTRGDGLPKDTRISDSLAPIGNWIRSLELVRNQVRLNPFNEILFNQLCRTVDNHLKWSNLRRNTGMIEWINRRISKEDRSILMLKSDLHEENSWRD

B1: VSV phosphoprotein (P) fragment, residues 35-106 (domain or fragment)
chain: SNYELFQEDGVEEHTKPSYFQAADDSDTESEPEIEDNQGLYAQDPEAEQVEGFIQGPLDDYADEEVDVVFTS
Regarding B1, the binding result is reported as “binds”.

The record behind these values is paper PMC7049099 (Cell reports, 2020).
